Results from paper PMC7743911 (Nature communications, 2015).
Numbering of substitutions follows the chain as printed. Values joined by “and” are separate entries in the source; they are usually repeats but may differ in a detail not shown here. Identical values can stand only once. Non-standard residues stand in square brackets, D forms with d. No end group written: not given here. pY = N[C@@H](Cc1ccc(OP(=O)(O)O)cc1)C(=O)O

Tests used:
[1] = target: T1, STAT5B wild type (residues 128 to 717), non-phosphorylated (human, UniProt P51692 128-717); assay: SPR
T1 sequence (looked up): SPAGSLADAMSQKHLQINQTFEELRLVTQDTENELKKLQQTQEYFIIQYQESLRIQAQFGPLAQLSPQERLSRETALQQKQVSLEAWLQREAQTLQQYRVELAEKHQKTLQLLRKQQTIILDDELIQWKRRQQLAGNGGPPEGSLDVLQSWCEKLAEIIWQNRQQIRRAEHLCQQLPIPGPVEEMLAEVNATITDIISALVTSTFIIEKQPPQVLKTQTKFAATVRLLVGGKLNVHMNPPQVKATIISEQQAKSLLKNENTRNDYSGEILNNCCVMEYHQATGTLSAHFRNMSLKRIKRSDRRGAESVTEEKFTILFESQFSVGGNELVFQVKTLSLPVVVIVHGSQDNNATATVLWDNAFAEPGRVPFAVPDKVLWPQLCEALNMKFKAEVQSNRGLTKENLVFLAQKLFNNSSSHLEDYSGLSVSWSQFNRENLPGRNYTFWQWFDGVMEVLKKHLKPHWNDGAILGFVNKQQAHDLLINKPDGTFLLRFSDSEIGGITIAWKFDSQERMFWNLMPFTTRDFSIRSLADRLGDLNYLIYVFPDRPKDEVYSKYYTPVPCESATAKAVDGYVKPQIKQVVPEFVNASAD

[2] = target: T2, STAT5B N642H mutant (residues 128 to 717), non-phosphorylated (human, UniProt P51692 128-717, N642H); assay: SPR
T2 sequence (looked up): T1 sequence (looked up) with N515H

Kd [1]: 15.6 µM and 14 µM
Kd [2]: 3.23 µM and 2.9 µM
Binder: KAVDG[pY]VKPQI [STAT5B phosphopeptide KAVDG(p)YVKPQI]
